Where no end group is shown, it is not given here. Me3 = trimethyl-lysine (trimethylated lysine)
Molecular target: T1, GST-tagged chromodomain (a.a. 1-90) of Drosophila melanogaster polycomb protein (Drosophila melanogaster, UniProt P26017 1-90)
T1 sequence (looked up): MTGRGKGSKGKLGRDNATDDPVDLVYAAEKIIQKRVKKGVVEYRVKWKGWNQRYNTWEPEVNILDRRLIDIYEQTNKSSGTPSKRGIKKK
Test: peptide or protein array

| Binder | binding result |
| --- | --- |
| GRIHRHLK(Me3)S [trimethylated histone peptide GRIHRHLKS (H2AZ, lysine site 37)] | binds |
| DSGKAKAK(Me3)A [trimethylated histone peptide DSGKAKAKA (H2AV, lysine site 15)] | binds |
| ASKDLKVK(Me3)R [trimethylated histone peptide ASKDLKVKR (H2AZ, H2AV, lysine site 79)] | binds |
| REIRRYQK(Me3)S [trimethylated histone peptide REIRRYQKS (H3.3, lysine site 56)] | binds |
| GGAKRHRK(Me3)V [trimethylated histone peptide GGAKRHRKV (H4, lysine site 20)] | binds |
| IQAVLLPK(Me3)K [trimethylated histone peptide IQAVLLPKK (H2A1 and other H2A, lysine site 117)] | binds |
| RTKQTARK(Me3)S [trimethylated histone peptide RTKQTARKS (H3.3, lysine site 9)] | binds |
| RIHRLLRK(Me3)G [trimethylated histone peptide RIHRLLRKG (H2A1A, lysine site 35)] | binds |
| EGTKAVTK(Me3)Y [trimethylated histone peptide EGTKAVTKY (H2B1A and other H2B, lysine site 117)] | binds |
| LATKAARK(Me3)S [trimethylated histone peptide LATKAARKS (H3.3, lysine site 27)] | binds |
| MDVVYALK(Me3)R [trimethylated histone peptide MDVVYALKR (H4, lysine site 91)] | binds |
| PRKQLATK(Me3)A [trimethylated histone peptide PRKQLATKA (H3.3, lysine site 23)] | binds |

— paper PMC4258113 (Journal of proteome research, 2013)
